# Source: patent publication US20200071382A1 (published 2020)
# T1: BMP9 (UniProt Q9UK05 320-429)
# T1 construct: Ligand injected over the captured receptor protein
# T1 sequence (looked up): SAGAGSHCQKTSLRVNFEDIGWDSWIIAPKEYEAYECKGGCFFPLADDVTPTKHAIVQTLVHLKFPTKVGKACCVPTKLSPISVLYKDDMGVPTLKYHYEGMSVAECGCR
# Molecular target: T1, BMP9
# Assay: Biacore SPR; protein captured by anti-Fc antibody, ligand injected
# Experimental: These protein complexes were independently captured in the system using an anti-Fc antibody. Ligands were injected and allowed to flow over the captured receptor protein. Results are summarized in the table below, in which ligand off-rates (kd) most indicative of effective ligand traps are denoted by bold text.
binder,measurement,value
ENG(26-346)-Fc:Fc monomeric complex (Fc fusion) ETVHCDLQPVGPERDEVTYTTSQVSKGCVAQAPNAILEVHVLFLEFPTGPSQLELTLQASKQNGTWPREVLLVLSVNSSVFLHLQALGIPLHLAYNSSLVTFQEPPGVNTTELPSFPKTQILEWAAERGPITSAAELNDPQSILLRLGQAQGSLSFCMLEASQDMGRTLEWRPRTPALVRGCHLEGVAGHKEAHILRVLPGHSAGPRTVTVKVELSCAPGDLDAVLILQGPPYVSWLIDANHNMQIWTTGEYSFKIFPEKNIRGFKLPDTPQGLLGEARMLNASIVASFVELPLASIVSLHASSCGGRLQTSPAPIQTTPPTGGGTHTCPPCPAPELLGGPSVFLFPPKPKDTLMISRTPEVTCVVVDVSHEDPEVKFNWYVDGVEVHNAKTKPREEQYNSTYRVVSVLTVLHQDWLNGKEYKCKVSNKALPAPIEKTISKAKGQPREPQVYTLPPSRKEMTKNQVSLTCLVKGFYPSDIAVEWESNGQPENNYKTTPPVLKSDGSFFLYSKLTVDKSRWQQGNVFSCSVMHEALHNHYTQKSLSLSPGK,Kd,> 36 nM
